Data taken from paper PMC7232166, “Expression of Pleurotus ostreatus Laccase Gene in Pichia pastoris and Its Degradation of Corn Stover Lignin” (Microorganisms, 2020).

Tests used:
Assay in all cases: purified protein
[1] = substrate: COc1ccccc1O; details: citrate-phosphate buffer, optimum pH 3.5, 25 °C stated for activity assay
[2] = substrate: CCn1c(=NN=c2sc3cc(S(=O)(=O)O)ccc3n2CC)sc2cc(S(=O)(=O)O)ccc21; format: biochemical, Pleurotus ostreatus; details: citrate-phosphate buffer, optimum pH 3.0, 25 °C stated for activity assay
[3] = substrate: COc1cccc(OC)c1O; format: biochemical, Pleurotus ostreatus; details: citrate-phosphate buffer, optimum pH 3.0, 25 °C stated for activity assay

B1: Recombinant laccase X33-Lac-2 (Pleurotus ostreatus) (protein)
chain: AIGPAGNMYIVNEDVSPDGFARSAVVARSVPATDPTPATASIPGVLVQGNKGDNFQLNVVNQLSDTTMLKTTSIHWHGFFQAGSSWADGPAFVTQCPVASGDSFLYNFNVPDQAGTFWYHSHLSTQYCDGLRGPFVVYDPSDPHLSLYDIDNADTVITLEDWYHIVAPQNAAIPTPDSTLINGKGRYAGGPTSPLAIINVESNKRYRFRLVSMSCDPNFTFSIDGHSLLVIEADAVNIVPITVDSIQIFAGQRYSFVLTANQAVDNYWIRANPNLGSTGFVGGINSAILRYAGATEDDPTTTSSTSTPLLETNLVPLENPGAPGPPVPGGADININLAMAFDFTTFELTINGVPFLPPTAPVLLQILSGASTAASLLPSGSIYELEANKVVEISMPALAVGGPHPFHLHGHTFDVIRSAGSTTYNFDTPARRDVVNTGTGANDNVTIRFVTDNPGPWFLHCHIDWHLEIGLAVVFAEDVTSISAPPAAWDDLCPIYNALSDNDKGGIVPS
notes: about 57 kDa on SDS-PAGE
- Km [1]: 302.4 ± 26.0 µM
- Km [2]: 13.6 ± 2.9 µM
- kcat [2]: 311 ± 21 s⁻¹
- kcat/Km [2]: 2.28e+07 M⁻¹ s⁻¹
- Km [3]: 79.2 ± 18.3 µM
- kcat [3]: 19.8 ± 1.1 s⁻¹
- kcat/Km [3]: 250000 M⁻¹ s⁻¹
